The record followed here is paper PMC6981147.

Bounds are passed on as bounds.

The target of experiment [1] is Rpn13 proteasome (reconstituted proteasome harboring the rpn1-ARR and rpn10-UIM mutations) (S. cerevisiae) (UniProt P38764).
The target in experiment [2] is Rpn1 proteasome (reconstituted proteasome harboring the rpn10-UIM and rpn13-pru mutations) (S. cerevisiae) (UniProt P38764).
For experiment [3], the target named is Rpn13 proteasome (rpn1-ARR, rpn10-uim) (S. cerevisiae) (UniProt P38764).
In experiment [4] the target is Rpn10/13 proteasome (rpn1-ARR) (S. cerevisiae) (UniProt P38764).
The target in experiment [5] is TM (triple mutant) proteasome (rpn1-ARR, rpn10-uim, rpn13-pru) (S. cerevisiae) (UniProt P38764).
The target in experiment [6] is wild-type proteasome (reconstituted from regulatory particle and core particle) (S. cerevisiae) (UniProt P38764).
Experiment [7] has as its target Rpn10 proteasome (rpn1-ARR, rpn13-pru) (S. cerevisiae) (UniProt P38764).

For the substance “UBL-GFP-35 (from UniProt P32628 1-80; P00175 1-35)”, in experiment [1], the initial rate of degradation (GFP fluorescence), single turnover, 5 nM substrate, 25 nM proteasome, 1 mM ATP, 30 °C; against Ub5(K48)-GFP-35 or Ub9(K48)-GFP-35 on the same proteasome is over 4 fold.

Substance UBL-GFP-95 (from UniProt P32628 1-80) came in with an initial rate of degradation (GFP fluorescence), single turnover, 5 nM substrate, 25 nM proteasome, 1 mM ATP, 30 °C; against Ub5(K48)-GFP-95 on the same proteasome in experiment [2] of 4 fold.

As to “Ub5(K48)-GFP-35: base protein Ub-GFP-35 with a K48-linked chain of four ubiquitins attached to its ubiquitin domain (from UniProt P0CG63 1-76; P0CG63 1-76)”, the Supplementary Table 4: KM of degradation (Michaelis-Menten analysis of initial rates of loss of GFP fluorescence, 25 nM proteasome, 1 mM ATP, 30 °C) turned out to be 5.72 µM in experiment [3], 0.058 µM in experiment [4] and 5.28 µM in experiment [5].

Regarding “Ub5(K63)-GFP-35: base protein Ub-GFP-35 with a K63-linked chain of four ubiquitins attached to its ubiquitin domain (from UniProt P0CG63 1-76; P0CG63 1-76)”, the Supplementary Table 4: KM of degradation (Michaelis-Menten analysis of initial rates of loss of GFP fluorescence, 25 nM proteasome, 1 mM ATP, 30 °C) in experiment [3] amounted to 0.816 µM; in experiment [5] it was 2.06 µM; in experiment [6] it was 0.333 µM; in experiment [7] it was 0.428 µM.

With “Ub9(K48)-GFP-35: base protein Ub-GFP-35 with a K48-linked chain of eight ubiquitins attached to its ubiquitin domain (from UniProt P0CG63 1-76; P0CG63 1-76)”, the Supplementary Table 4: KM of degradation (Michaelis-Menten analysis of initial rates of loss of GFP fluorescence, 25 nM proteasome, 1 mM ATP, 30 °C) amounted to 1.1 µM in experiment [3], 1.68 µM in experiment [5] and 0.05 µM in experiment [6].
